The values that follow are results of earlier work, collected in article PMC6005205.

For the data set, the target named is ACKR3 (Homo sapiens) (UniProt P25106).
Chain of UniProt P25106 (P25106 whole entry): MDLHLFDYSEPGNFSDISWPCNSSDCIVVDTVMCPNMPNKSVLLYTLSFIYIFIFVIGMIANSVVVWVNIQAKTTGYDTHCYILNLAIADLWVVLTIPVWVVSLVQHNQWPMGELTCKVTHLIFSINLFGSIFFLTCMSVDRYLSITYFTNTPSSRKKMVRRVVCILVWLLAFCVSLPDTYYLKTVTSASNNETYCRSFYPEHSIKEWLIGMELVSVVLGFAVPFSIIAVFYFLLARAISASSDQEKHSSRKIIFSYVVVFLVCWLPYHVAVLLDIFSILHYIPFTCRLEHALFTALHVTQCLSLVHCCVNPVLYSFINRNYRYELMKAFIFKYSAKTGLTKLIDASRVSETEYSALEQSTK

By Kd is commonly meant a measure of binding affinity in units of concentration. Turning to adrenomedullin (from UniProt P35318), the Kd was 0.2 nM.
